Paper PMC12427885 (Foods, 2025)
Values belong to the compound of their own block, whether it stands above or below them.

Experiments:
DAO-GH = biological target: T1, DAO-GH (Glutamicibacter halophytocola, UniProt Z9MBQ1XXX8); test: DA-67/horseradish peroxidase coupled H2O2 assay, […] nm; Michaelis-Menten nonlinear regression; assay type: biochemical; conditions: substrate inhibition by tyramine; second site; 25 mM potassium phosphate pH 6.8, 37 °C; partially purified enzyme
T1 construct: gene from G. halophytocola isolate, codon-optimized, intracellular expression in Komagataella phaffii; partially purified (PEI, ammonium sulfate, HIC)

NCCc1ccc(O)cc1 = test: purified protein; conditions: apparent, 25 mM potassium phosphate pH 6.8, 37 °C, 0.005-3 mM tyramine, partially purified enzyme
[1] = biological target: diamine oxidase from Glutamicibacter halophytocola (DAO-GH) (Glutamicibacter halophytocola); test: SEC; HiLoad 16/600 Superdex 200 prep grade; 50 mM sodium phosphate, 150 mM NaCl, pH 7; 1 mL/min; HIC-purified (partially purified) DAO-GH; fractions analysed for DAO activity; calibrated with the high molecular weight gel filtration kit; native mass compared with the monomer's mass

T1 sequence (Z9MBQ1XXX8 1-653): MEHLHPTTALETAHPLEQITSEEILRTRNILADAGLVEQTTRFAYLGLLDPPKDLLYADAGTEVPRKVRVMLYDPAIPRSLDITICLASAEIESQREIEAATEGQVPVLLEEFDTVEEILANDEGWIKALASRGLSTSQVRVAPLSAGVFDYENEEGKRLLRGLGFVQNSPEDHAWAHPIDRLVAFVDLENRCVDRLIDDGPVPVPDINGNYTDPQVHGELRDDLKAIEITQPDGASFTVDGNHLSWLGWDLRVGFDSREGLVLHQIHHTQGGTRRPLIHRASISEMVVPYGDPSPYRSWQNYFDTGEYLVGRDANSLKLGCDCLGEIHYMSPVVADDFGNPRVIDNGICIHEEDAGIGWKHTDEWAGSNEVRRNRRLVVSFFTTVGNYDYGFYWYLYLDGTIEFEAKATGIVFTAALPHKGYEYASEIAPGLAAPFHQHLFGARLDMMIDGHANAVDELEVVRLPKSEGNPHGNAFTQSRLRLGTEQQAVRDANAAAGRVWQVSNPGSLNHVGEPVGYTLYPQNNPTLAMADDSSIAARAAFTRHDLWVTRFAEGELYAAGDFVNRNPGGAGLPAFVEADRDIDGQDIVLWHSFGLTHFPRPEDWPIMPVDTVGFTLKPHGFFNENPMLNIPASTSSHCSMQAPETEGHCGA

Compound: NCCc1ccc(O)cc1 [tyramine]
Ki (DAO-GH): 10.4 ± 4.0 mM

Compound: DAO-GH (Glutamicibacter halophytocola)
Km (NCCc1ccc(O)cc1): 9 ± 0.2 µM

stoichiometry N [1]: 2
Compound: diamine oxidase from Glutamicibacter halophytocola (DAO-GH) (enzyme)
